Test results taken from article PMC9596381, “GPC3-Unc5 receptor complex structure and role in cell migration” (Cell, 2022).

What was measured:
[1] = target: T1, human glypican-3 core domain, residues 32-483 (hGPC3^core) (human, UniProt P51654 32-483, N-linked glycans at N124 and N241); test: SPR; Unc5A-D ectodomains immobilised; hGPC3^core or mGPC3^ecto injected in a 2-fold dilution series (top 4.5 uM) with Fc control protein, Nano^glue or Nano^break kept constant at 9 uM (with hGPC3^core) or 4.5 uM (with mGPC3^ecto); details: both partners purified
T1 construct: human glypican-3 (GPC3), core domain, residues 32-483; Only partly cleaved at the furin-like site (R355-R358); the two fragments stay covalently attached; The forward primer starts at Met1; source: HEK293T or GnTI-deficient HEK293S, transiently transfected, secreted, purified (HisTrap, SEC); not shown: His6, C-terminal, kept
T1 sequence (P51654 32-483): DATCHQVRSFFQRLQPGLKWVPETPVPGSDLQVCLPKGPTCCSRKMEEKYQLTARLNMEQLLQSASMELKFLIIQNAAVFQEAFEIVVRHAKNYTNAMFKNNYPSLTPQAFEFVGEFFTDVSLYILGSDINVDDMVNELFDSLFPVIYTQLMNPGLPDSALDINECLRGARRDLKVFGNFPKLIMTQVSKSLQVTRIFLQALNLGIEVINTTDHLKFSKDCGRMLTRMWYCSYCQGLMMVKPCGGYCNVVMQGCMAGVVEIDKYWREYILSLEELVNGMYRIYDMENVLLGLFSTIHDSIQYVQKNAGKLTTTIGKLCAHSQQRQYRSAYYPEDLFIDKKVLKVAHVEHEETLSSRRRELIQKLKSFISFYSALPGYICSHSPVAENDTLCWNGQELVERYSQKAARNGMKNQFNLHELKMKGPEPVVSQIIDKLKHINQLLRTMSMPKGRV

[2] = target: T2, murine GPC3 ectodomain, residues 31-559 (mGPC3^ecto) (mouse, UniProt Q8CFZ4 31-559); test: as above; details: both partners purified
T2 construct: mouse glypican-3 (GPC3), residues 31-559; source: HEK293 cells, purified
T2 sequence (Q8CFZ4 31-559): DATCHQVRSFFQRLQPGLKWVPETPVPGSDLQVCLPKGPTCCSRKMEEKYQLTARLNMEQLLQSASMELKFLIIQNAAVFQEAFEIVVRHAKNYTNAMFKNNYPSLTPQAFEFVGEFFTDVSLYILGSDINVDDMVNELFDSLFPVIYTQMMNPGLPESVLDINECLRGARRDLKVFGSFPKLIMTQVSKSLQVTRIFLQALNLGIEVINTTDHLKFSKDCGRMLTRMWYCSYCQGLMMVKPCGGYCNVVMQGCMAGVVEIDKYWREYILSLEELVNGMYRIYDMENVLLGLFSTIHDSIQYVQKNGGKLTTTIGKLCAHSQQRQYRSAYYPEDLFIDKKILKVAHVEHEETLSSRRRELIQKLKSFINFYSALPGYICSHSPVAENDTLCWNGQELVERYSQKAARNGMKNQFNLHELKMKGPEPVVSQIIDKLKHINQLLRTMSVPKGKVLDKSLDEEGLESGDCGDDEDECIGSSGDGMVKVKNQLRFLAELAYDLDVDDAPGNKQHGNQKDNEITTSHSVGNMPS

B1: mouse Unc5A ectodomain, residues 1-359 (mUnc5A^ecto) (domain or fragment)
chain: not shown
modifications: biotin on the Avi-tag
notes: signal peptide in the construct; mouse Unc5A, residues 1-359; source: HEK293 cells, purified; not shown: Avi-tag, C-terminal, kept
binding result [1]: binds
binding result [2]: binds
